The numbers were not newly measured in paper PMC7072806, which cites them from elsewhere.

Data set [1] deals with CCR5 (Homo sapiens) (UniProt P51681).
Data set [2] shares this target. Description: SPR.

Like-named read-outs stand apart in the source and are kept apart here.

Sequence of UniProt P51681 (P51681 whole entry): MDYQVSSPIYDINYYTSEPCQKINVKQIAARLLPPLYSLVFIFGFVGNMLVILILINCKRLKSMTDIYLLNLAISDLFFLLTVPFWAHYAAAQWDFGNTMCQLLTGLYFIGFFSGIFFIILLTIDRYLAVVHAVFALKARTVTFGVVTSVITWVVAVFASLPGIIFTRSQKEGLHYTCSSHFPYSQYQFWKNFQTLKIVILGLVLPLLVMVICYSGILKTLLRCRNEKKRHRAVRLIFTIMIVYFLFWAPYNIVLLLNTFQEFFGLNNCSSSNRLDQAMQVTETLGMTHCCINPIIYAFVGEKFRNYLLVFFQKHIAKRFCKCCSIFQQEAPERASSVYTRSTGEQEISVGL

For the substance RANTES (from UniProt P13501), the Kd in the data set with CCR5 (Homo sapiens) [1] is 0.4 nM.
Regarding eNAMPT (from UniProt P43490), in the data set with CCR5 (Homo sapiens) [2], the Kd is 5 µM.
